According to article PMC12416549 (2024):

T1: TNFR1 (Homo sapiens, UniProt P19438)
T1 chain: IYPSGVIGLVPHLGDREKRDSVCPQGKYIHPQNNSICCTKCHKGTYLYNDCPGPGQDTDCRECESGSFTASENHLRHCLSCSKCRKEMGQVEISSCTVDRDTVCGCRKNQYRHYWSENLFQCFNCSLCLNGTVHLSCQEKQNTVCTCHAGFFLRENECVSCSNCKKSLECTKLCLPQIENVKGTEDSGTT


Target: T1, TNFR1
Assay: yeast display SC50

Row | Binder | apparent Kd (screen) [nM]
1 | K8P (designed binder) SMEEEVEPAAKEYEKKKKEAIEKHLEKLKAKDKEAAERFLKELEEAAKEYAKDEAKTMSEEEAKRRAKKYKEKVLLSELSEEEQKEIKEAEEKLVRTILKYVEEAAK | 3.63
2 | K17Q (designed binder) SMEEEVEKAAKEYEKKQKEAIEKHLEKLKAKDKEAAERFLKELEEAAKEYAKDEAKTMSEEEAKRRAKKYKEKVLLSELSEEEQKEIKEAEEKLVRTILKYVEEAAK | 1.16
3 | E44N (designed binder) SMEEEVEKAAKEYEKKKKEAIEKHLEKLKAKDKEAAERFLKELNEAAKEYAKDEAKTMSEEEAKRRAKKYKEKVLLSELSEEEQKEIKEAEEKLVRTILKYVEEAAK | 1.05
4 | K33Y (designed binder) SMEEEVEKAAKEYEKKKKEAIEKHLEKLKAKDYEAAERFLKELEEAAKEYAKDEAKTMSEEEAKRRAKKYKEKVLLSELSEEEQKEIKEAEEKLVRTILKYVEEAAK | 0.593
5 | E22V (designed binder) SMEEEVEKAAKEYEKKKKEAIVKHLEKLKAKDKEAAERFLKELEEAAKEYAKDEAKTMSEEEAKRRAKKYKEKVLLSELSEEEQKEIKEAEEKLVRTILKYVEEAAK | 1.16
6 | E34H (designed binder) SMEEEVEKAAKEYEKKKKEAIEKHLEKLKAKDKHAAERFLKELEEAAKEYAKDEAKTMSEEEAKRRAKKYKEKVLLSELSEEEQKEIKEAEEKLVRTILKYVEEAAK | 0.446
7 | H24N (designed binder) SMEEEVEKAAKEYEKKKKEAIEKNLEKLKAKDKEAAERFLKELEEAAKEYAKDEAKTMSEEEAKRRAKKYKEKVLLSELSEEEQKEIKEAEEKLVRTILKYVEEAAK | 0.446
8 | L28E (designed binder) SMEEEVEKAAKEYEKKKKEAIEKHLEKEKAKDKEAAERFLKELEEAAKEYAKDEAKTMSEEEAKRRAKKYKEKVLLSELSEEEQKEIKEAEEKLVRTILKYVEEAAK | 0.539
9 | A46Y (designed binder) SMEEEVEKAAKEYEKKKKEAIEKHLEKLKAKDKEAAERFLKELEEYAKEYAKDEAKTMSEEEAKRRAKKYKEKVLLSELSEEEQKEIKEAEEKLVRTILKYVEEAAK | 0.49
10 | K29S (designed binder) SMEEEVEKAAKEYEKKKKEAIEKHLEKLSAKDKEAAERFLKELEEAAKEYAKDEAKTMSEEEAKRRAKKYKEKVLLSELSEEEQKEIKEAEEKLVRTILKYVEEAAK | 0.446
11 | E49F (designed binder) SMEEEVEKAAKEYEKKKKEAIEKHLEKLKAKDKEAAERFLKELEEAAKFYAKDEAKTMSEEEAKRRAKKYKEKVLLSELSEEEQKEIKEAEEKLVRTILKYVEEAAK | 9.41
12 | K23V (designed binder) SMEEEVEKAAKEYEKKKKEAIEVHLEKLKAKDKEAAERFLKELEEAAKEYAKDEAKTMSEEEAKRRAKKYKEKVLLSELSEEEQKEIKEAEEKLVRTILKYVEEAAK | 0.869
13 | L43K (designed binder) SMEEEVEKAAKEYEKKKKEAIEKHLEKLKAKDKEAAERFLKEKEEAAKEYAKDEAKTMSEEEAKRRAKKYKEKVLLSELSEEEQKEIKEAEEKLVRTILKYVEEAAK | 0.869
14 | L25E (designed binder) SMEEEVEKAAKEYEKKKKEAIEKHEEKLKAKDKEAAERFLKELEEAAKEYAKDEAKTMSEEEAKRRAKKYKEKVLLSELSEEEQKEIKEAEEKLVRTILKYVEEAAK | 2.73
15 | E5C (designed binder) SMEECVEKAAKEYEKKKKEAIEKHLEKLKAKDKEAAERFLKELEEAAKEYAKDEAKTMSEEEAKRRAKKYKEKVLLSELSEEEQKEIKEAEEKLVRTILKYVEEAAK | 1.05
16 | I21R (designed binder) SMEEEVEKAAKEYEKKKKEAREKHLEKLKAKDKEAAERFLKELEEAAKEYAKDEAKTMSEEEAKRRAKKYKEKVLLSELSEEEQKEIKEAEEKLVRTILKYVEEAAK | 0.869
17 | R38E (designed binder) SMEEEVEKAAKEYEKKKKEAIEKHLEKLKAKDKEAAEEFLKELEEAAKEYAKDEAKTMSEEEAKRRAKKYKEKVLLSELSEEEQKEIKEAEEKLVRTILKYVEEAAK | 2.73
18 | F39L (designed binder) SMEEEVEKAAKEYEKKKKEAIEKHLEKLKAKDKEAAERLLKELEEAAKEYAKDEAKTMSEEEAKRRAKKYKEKVLLSELSEEEQKEIKEAEEKLVRTILKYVEEAAK | 1.16

Second part, the binder after the results:

Row | apparent Kd (screen) [nM] | Binder
19 | 0.446 | Y101G (designed binder) SMEEEVEKAAKEYEKKKKEAIEKHLEKLKAKDKEAAERFLKELEEAAKEYAKDEAKTMSEEEAKRRAKKYKEKVLLSELSEEEQKEIKEAEEKLVRTILKGVEEAAK
20 | 3 | L76W (designed binder) SMEEEVEKAAKEYEKKKKEAIEKHLEKLKAKDKEAAERFLKELEEAAKEYAKDEAKTMSEEEAKRRAKKYKEKVLWSELSEEEQKEIKEAEEKLVRTILKYVEEAAK
21 | 0.208 | D53K (designed binder) SMEEEVEKAAKEYEKKKKEAIEKHLEKLKAKDKEAAERFLKELEEAAKEYAKKEAKTMSEEEAKRRAKKYKEKVLLSELSEEEQKEIKEAEEKLVRTILKYVEEAAK
22 | 0.446 | K69L (designed binder) SMEEEVEKAAKEYEKKKKEAIEKHLEKLKAKDKEAAERFLKELEEAAKEYAKDEAKTMSEEEAKRRAKLYKEKVLLSELSEEEQKEIKEAEEKLVRTILKYVEEAAK
23 | 6.43 | Y70M (designed binder) SMEEEVEKAAKEYEKKKKEAIEKHLEKLKAKDKEAAERFLKELEEAAKEYAKDEAKTMSEEEAKRRAKKMKEKVLLSELSEEEQKEIKEAEEKLVRTILKYVEEAAK
24 | 8.56 | Y70L (designed binder) SMEEEVEKAAKEYEKKKKEAIEKHLEKLKAKDKEAAERFLKELEEAAKEYAKDEAKTMSEEEAKRRAKKLKEKVLLSELSEEEQKEIKEAEEKLVRTILKYVEEAAK
25 | 13.8 | K73T (designed binder) SMEEEVEKAAKEYEKKKKEAIEKHLEKLKAKDKEAAERFLKELEEAAKEYAKDEAKTMSEEEAKRRAKKYKETVLLSELSEEEQKEIKEAEEKLVRTILKYVEEAAK
26 | 11.4 | K69W (designed binder) SMEEEVEKAAKEYEKKKKEAIEKHLEKLKAKDKEAAERFLKELEEAAKEYAKDEAKTMSEEEAKRRAKWYKEKVLLSELSEEEQKEIKEAEEKLVRTILKYVEEAAK
27 | 0.49 | E89S (designed binder) SMEEEVEKAAKEYEKKKKEAIEKHLEKLKAKDKEAAERFLKELEEAAKEYAKDEAKTMSEEEAKRRAKKYKEKVLLSELSEEEQKEIKSAEEKLVRTILKYVEEAAK
28 | 0.539 | K85Q (designed binder) SMEEEVEKAAKEYEKKKKEAIEKHLEKLKAKDKEAAERFLKELEEAAKEYAKDEAKTMSEEEAKRRAKKYKEKVLLSELSEEEQQEIKEAEEKLVRTILKYVEEAAK
29 | 0.539 | E103V (designed binder) SMEEEVEKAAKEYEKKKKEAIEKHLEKLKAKDKEAAERFLKELEEAAKEYAKDEAKTMSEEEAKRRAKKYKEKVLLSELSEEEQKEIKEAEEKLVRTILKYVVEAAK
30 | 1.27 | K68M (designed binder) SMEEEVEKAAKEYEKKKKEAIEKHLEKLKAKDKEAAERFLKELEEAAKEYAKDEAKTMSEEEAKRRAMKYKEKVLLSELSEEEQKEIKEAEEKLVRTILKYVEEAAK
31 | 16.7 | V74A (designed binder) SMEEEVEKAAKEYEKKKKEAIEKHLEKLKAKDKEAAERFLKELEEAAKEYAKDEAKTMSEEEAKRRAKKYKEKALLSELSEEEQKEIKEAEEKLVRTILKYVEEAAK
32 | 1.05 | K107G (designed binder) SMEEEVEKAAKEYEKKKKEAIEKHLEKLKAKDKEAAERFLKELEEAAKEYAKDEAKTMSEEEAKRRAKKYKEKVLLSELSEEEQKEIKEAEEKLVRTILKYVEEAAG
33 | 0.446 | E86Q (designed binder) SMEEEVEKAAKEYEKKKKEAIEKHLEKLKAKDKEAAERFLKELEEAAKEYAKDEAKTMSEEEAKRRAKKYKEKVLLSELSEEEQKQIKEAEEKLVRTILKYVEEAAK
34 | 15.2 | E62P (designed binder) SMEEEVEKAAKEYEKKKKEAIEKHLEKLKAKDKEAAERFLKELEEAAKEYAKDEAKTMSEEPAKRRAKKYKEKVLLSELSEEEQKEIKEAEEKLVRTILKYVEEAAK
35 | 0.653 | K100S (designed binder) SMEEEVEKAAKEYEKKKKEAIEKHLEKLKAKDKEAAERFLKELEEAAKEYAKDEAKTMSEEEAKRRAKKYKEKVLLSELSEEEQKEIKEAEEKLVRTILSYVEEAAK
